Measured values published in the supplement of paper PMC12636428.

test system: Saccharomyces cerevisiae; experiment: transcriptional activation domain activity (GFP:mCherry ratio, weighted mean of sorted bins, harmonized to initial dataset scale) (arbitrary fluorescence ratio units); higher = stronger transcriptional activation; details: beta-estradiol 1 µM; induction time 4 h
How it was run: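 The activation activity of each tile is the read-weighted mean of bin median fluorescence, averaged across its barcodes and mapped linearly onto the scale of the initial dataset. Tiles were fused to an estradiol-inducible synthetic transcription factor, barcoded, and integrated at URA3 in yeast diploids carrying a GFP reporter. Induction used 1 uM beta-estradiol in SC for 4 hours at 30 °C, after which cells were sorted into 8 GFP:mCherry bins, and any tile with fewer than 50 reads was dropped.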

First: MYHITVFSLPLNLYCARCFALTLTILMGKSFLMGFINVFNRICTLLVTTLFLI
Second: WVLNVHLCLFYLAAFGDSAFNVISAIRKLSELPFSYSLYLFAWLFISWDLLFV
The “transcriptional activation domain activity” value of the first is lower: 70100 for the first, 70500 for the second.

First: ALSTRPFVLSDMIFFFGVGTLITLPIPFLVIYDYPYKKPRTYQVYLLICVWAW
Second: MPGLCIWYGVFWVVGFFSFFLLVLRVMGFLVCVFVRLVCVCFFRAFDICFFFS
The “transcriptional activation domain activity” value of the first is higher: 61500 for the first, 34500 for the second.

First: WAPLNVGLERRLQTFVVLCHTLTIPIFLTLFFFLCAIPLFWPLLIPYLIYILL
Second: GWKYIILAACDVEGNFLVVKVGLFSTTILLVMTLRYQAYQYTNLLSCMLLDAW
The “transcriptional activation domain activity” value of the first is lower: 34700 for the first, 43000 for the second.

Going from “GLQGQYNAYSTKHNINVPHGDILVFSLACGQIMYAWLMRPDTLPISYSNWICN” to “AYNLILIIRWCLFIITIYYCYTLVLYHHYKVNFKQLIRKSMSPIKNNNLIHQF”, the “transcriptional activation domain activity” value rises from 39300 to 65300.

Compared with “MSLFLHSIIGGWLLHLFSLLCFLLFCFSAFCFSTTLFVTRRSGFVVGLWSLCL”, “DEYGNAKIRDLRLKPVQTISDSQTVDEAVELMRDKGYDQVPVTSSTGRRLVGM” is higher in “transcriptional activation domain activity” value: 52000 for the first, 73300 for the second.

Compared with “GGERREREEGTERREKEEAGRRRRESGRGQEGKKRGEGGGGRKKRGRDGGGPG”, “MLWGNVGTSIKIWYGVFFCYCSIVLFRSSLYIINFFLLCFFFFFVFFLWFFYH” is higher in “transcriptional activation domain activity” value: 38500 for the first, 44400 for the second.

Compared with “ILGRLCRVRVLGFNDVLVRVDIILCLHLDTPAEAVFRVQRLVSLMGMLALQVF”, “MSLASLAAQRSNCMKRRVGCVVVRDKRVVSTGYNGTPRGLRNCGEGGCGRCNE” is lower in “transcriptional activation domain activity” value: 41300 for the first, 21100 for the second.

Going from “PKRKRAAPKKKDAEDNTEEKPKRGRKKKEENGDAEEKPKKAPVRKARATKKVE” to “EEEDGEEDYGNRLFVIASDKLQEEQLLIDVPPGNILSSNLLQVLKEILKTRKK”, the “transcriptional activation domain activity” value rises from under 6570 to 26100.

Going from “EKGEGDKNRRGRRRGGRGRGGGGDKDKEKDKEGGGGGGRGERKTEGSGGISAQ” to “DYCSFNSFPPSHFMSLYKNLGSFFLLSSFPPPPFFFVLLYLPASCLCFFCLFF”, the “transcriptional activation domain activity” value rises from 42000 to 54500.

First: RFISTRSFLFIFLFDSFFFFSFFFLSLFFFFISFFSFSSFFFFIFTLYLSRAL
Second: MDFTLTWVKLHVYFFFLPYPCWKINSLVYPFFFLFFLSFPFSFFFSLFSLFLC
The “transcriptional activation domain activity” value of the first is lower: 28300 for the first, 69100 for the second.

Going from “EVLLLLMWMFWTKVVKIIPHFLRHPSDFPLVICQILFGYAHSFIKLWALVTFW” to “MPWFIVCPLIFCSFGPFDALLSVLFFFYEHHFLLVIFPLTLIMQFSFLLSYFS”, the “transcriptional activation domain activity” value rises from 47200 to 53100.

Compared with “ALDDKGNRDAFYSVLVNLMSKLCWAIVQYLESNSLRATYVIEARISEYTKFSI”, “KAAPAQDGAAAGERNGAEAAEAGEEEEEAEGEAAAEPGAEAAEKPAPKPAAAA” is lower in “transcriptional activation domain activity” value: 42500 for the first, 42100 for the second.

Going from “MRLYCKVVYCHLFVSYLLPLSLTAHLNHLSKGRSLAIFCLLVLILSSFLFSFS” to “VYILVSYFLLGPRCLILIASTFLLSYHSSWSIVTRRVLWRFKVVRLIFFYLTG”, the “transcriptional activation domain activity” value rises from 27000 to 61700.

First: TQAGPSTGGGVFGQPSQPSTSTNAFGGGNGLFGSKPTTGFGTATTPAAGVPAP
Second: IYTNRFVSGDDGSNSKTKNLDSNMFSNDFNFENQFDEQVSEFCSKMNQVCGTR
The “transcriptional activation domain activity” value of the first is lower: 53600 for the first, 74400 for the second.

Going from “ESDGGGEESGEGEERRKRRKKERLERRERKLKAKEEKKKKKSRGDGEAATKSQ” to “YLIILILFCFCHLWELDRWAHSLASQEKLRYSCVIGLTIFRLRCPLSLTKDAP”, the “transcriptional activation domain activity” value rises from 25100 to 48900.

Compared with “AIMIMCLLLFENEFLNIVAISFTALVLNELIMVALEITTWHIYMILAEIVTLF”, “CIVLEKYIGRLLGLPCDMVFSVFTAASTLLYDSQTKEPNPDTSRRLKLCIHWL” is higher in “transcriptional activation domain activity” value: 55800 for the first, 68500 for the second.

Compared with “MSPPCIVLKHLLFFLFSFHRILLQPVRRPSCFHISLYVLVVRLYWFRGILDFC”, “QHNASQPGDLHSVLHRNQREGQHSVNQLVDRHSESQRGGQHNVNQQRDLQHGN” is lower in “transcriptional activation domain activity” value: 38300 for the first, 33400 for the second.

First: MRFLFFLLLFLFFFPPPLPPISSLQGCFFVIFFFGFFIFSSFLLFYAVFFFIV
Second: VRVVVANMFGLVIIFLFFFMYFDDFSKEILNAVQVSQIWMYLHFPLHLCQVAF
The “transcriptional activation domain activity” value of the first is lower: 39000 for the first, 50400 for the second.

Compared with “MDRVSIRFTLAISLADLGQAVLHMIGSKFSWLSCGLLLGISRFLCLFYIFLSV”, “MFCLRSWLPLLFIPTNAPPIFIFIFFFLNFFLSRPCVYCSFLLLILCLTSCYW” is lower in “transcriptional activation domain activity” value: 57100 for the first, 36600 for the second.

Going from “KGGSSPEEASAQSGGARSKEAKETGSSPTGGEVGKSGGKSNKSESSEEKSKDG” to “LLQKVAIQHYHTGLRALIPWSQLTVLVIASIPSQQCVRVLALAVNLLYCEFAI”, the “transcriptional activation domain activity” value rises from 19900 to 67000.

Going from “HHLRLHWFADVLNYRARDTLFSILRIVSHIRSLRLFAVYLLRWERQRHEAKTV” to “EIGALMLLSKTLEDNPNRLGSLVRILTLKCFIPQSYFKLMVRRLNILFSCCSR”, the “transcriptional activation domain activity” value rises from 49800 to 64300.

Going from “EGDDEAPVQPKGRPRKSKAAAAESADEEPRPKAVRSRPSRARKSKPVASDSDV” to “VVFVLIIFSLSILPSAPLVKTGALVVLASLLLMPITQQFFLPSLPIWTYLLYF”, the “transcriptional activation domain activity” value rises from under 6570 to 47500.

Going from “DDPDVEESDDEPVELWVARGEDRCDACKQRNIRVCEPQWGAPRSSACKTCARK” to “RLAGGLRGLTGLEKEELRKRGWGLGWWMMRGAFYENITKAWIHTVTRKLKNKP”, the “transcriptional activation domain activity” value rises from 31700 to 47300.

Compared with “NGPRRNNNTPNNSPLNPGENGTSRPPRQRNPRNRPPRPRTQDNAPEPSEPASG”, “CLFFFSLFSLFILIFLSFLFFPPTSCFPSLYFLFYLSHFLLSFSFLYLYRYRF” is higher in “transcriptional activation domain activity” value: 19800 for the first, 39500 for the second.

Compared with “KKPPARLLAKKAPAAAAGGEEGSSKSAAKPAAPPVKKVVPAAAAAKPAKGGAP”, “FIQLVHLWRLILNYGPTGPFNIRMPSHLTWVVIKQHIQQYFFRCLCLLNKDGA” is higher in “transcriptional activation domain activity” value: 28400 for the first, 49100 for the second.

First: WLILIRIINPIIMYFFVSCFYSLLSLAFQVPFNRFYGSSGFVIYWMMSWMAMC
Second: RELKRMVQEAIRDIREKKSTLTVQHLKRLLFRVAALIICTPKCDHDLLHYLVI
The “transcriptional activation domain activity” value of the first is lower: 47100 for the first, 61800 for the second.

Compared with “PRNSWIKWAFLFARYFPLLAGLCGRVIDSIVLYRQPIPIPLNALRIWYICQVL”, “MTDRCRVRCTKLIIIIKGIFFWVSLVSLLFFFLLILSAFSFFLLLLLYYLFTI” is lower in “transcriptional activation domain activity” value: 52500 for the first, 46200 for the second.

First: SMDQIREYNTRLQLVNAQSFDYTDNPYSFNVGINQDSAVFDLMTSPFTQEEVL
Second: DRDRSRSRSRSRSKSPRRHRRSSRSPRRRGADKSPERAAPAASSKQAEARPRC
The “transcriptional activation domain activity” value of the first is higher: 112000 for the first, 31100 for the second.

Going from “FLLSTSFYFVFILFLFHFYIVLFLLPPPSLSFPLSLPYLSAFIVLTPTQLWPA” to “HPLIDVSEEAFIQLAYLAVALAKHLCILTRVTYYQNVKGLSSSHFMYLFYICL”, the “transcriptional activation domain activity” value falls from 77600 to 40200.

First: ATADRDGEREAQEVVATTVVHCHGLFGKTYISIIRAFHVLIVKHSLARLPKKI
Second: MHAFQAGRDMPLVRRRSGGCLESDGGGEERVLRCETEECMSKEGVVSVGAGAD
The “transcriptional activation domain activity” value of the first is higher: 60700 for the first, 35500 for the second.

Compared with “PLIDLFGKDHLCLVKAAYHKIFGIVFESGTDLTDHVRRMLCTRSDFARTILPL”, “MRQVHIVFSGRDSGRESDIEVVSETSVFHDAAFVLGCVLVRGRSFAAPLLTAL” is lower in “transcriptional activation domain activity” value: 82800 for the first, 32700 for the second.

Going from “MWLVVCIDGPVLSVLPRTILYLCVLLLLTLLASCSERSFAFARPLSSSCIFSY” to “AAAGNATAEAGAAEGKAKGKGKDAAAAEGAAAAGGAAAAEGKAKGKGKDAAAA”, the “transcriptional activation domain activity” value rises from 42600 to 46600.

First: MGLANGDALITECGGVTFGFGFFLIFVGFWIGLDQVDGVWFLTLVWLLALFFL
Second: ESNVEAGKAEAEKAVEEAAGAEGEGGEEKAVEEEVAEGAEGEAAEGEAAEGEA
The “transcriptional activation domain activity” value of the first is higher: 53900 for the first, 32600 for the second.

Going from “KPAGIMMFYFPCLYGTFLVGCLGHEINILSMAIANAKLFLLSFLMRGMLCTWN” to “MMELEGWDGGPYIWVDLVILFWLFVILLDWFFLLAIFSTVRGSPGLVGVFFFF”, the “transcriptional activation domain activity” value rises from 43200 to 52100.

Going from “SFGDLVSVGPRQYYRPTHSLTIISICEEDNNLPASLVKRFNMLMALLVILTNT” to “MILIVFSLLLSFPMFLERVLFFPLSFLFFFSPSFCLSYTQPSPLTMPFFSYFC”, the “transcriptional activation domain activity” value rises from 41300 to 68300.

Going from “MFTGTLLVVFMHYGWSFFLNCCLGCLVISFCFWYVKLWLLIGRCILVLCIVAR” to “APPPPQPAPPVSVAPSKKTSKSKVDAPASNNEPEPVSAPKKGRKGKSKAIAQT”, the “transcriptional activation domain activity” value falls from 69000 to 12200.

Going from “LQKDKFKVELQLLDIRVSDKLLMGIEKAIREFLTQKFVICRRVFVPWVPKVLF” to “VREWHVDLSFSSFGKTLLRELESLLERVRANWLEEVTVRTIALICSRLLASTI”, the “transcriptional activation domain activity” value falls from 61500 to 60800.

First: LKGDHLDAVMVPKCESAADLHFVTDVIRHLRPDRHPSSTASASSSGSRREPVR
Second: IDSEAEDASRNGKIPKGKKSKKNHCESETEEVIEKQPASTTQKSSKKKHCMRK
The “transcriptional activation domain activity” value of the first is higher: 33200 for the first, 19600 for the second.

Going from “MIPSYLSHGRAAIIAIRLVLALYFFWHPLVLFLSSLKLITPCICLHLLFAFWI” to “SVKHIITLFDDVRQNLAHAGLVALLLAQPHMIVLLTDVWLHMFRYLSAFEITI”, the “transcriptional activation domain activity” value falls from 62500 to 52100.

Going from “MNCGIGFLNFHSQTSFKFLLFILFHFNFFAYLPLLTSCYSRLFSFSFSTIYFI” to “HLLILRFVAHFSHLGLGCSSYSLMFYVLSYLLYISLLSNIISLYPPSCLYLAH”, the “transcriptional activation domain activity” value falls from 61200 to 45400.

Compared with “MRQARGLHCRCPFGYRASLVLCLYLDVLFEGGFLYFYFFVPFFHATTFFFFLL”, “YRISLAILQLCKDHLLQSCPTNSEILAFLLHIPHDYLTADVLLDTAFHIKLSK” is higher in “transcriptional activation domain activity” value: 37700 for the first, 54000 for the second.

“KEKEKQERDARRREKEGAAAAAAGEKRKVEEGSAGGEAVKKAKVGAAAAAVAA” was tested, and the “transcriptional activation domain activity” value was 47800.
